Measurements: patent publication US6372211B1, “Methods and compositions for controlling insects” (Monsanto Technolgy LLC, priority 1997, dated 2002)

What was measured:
F22844 lysine oxidase = assay: Substrate specificity of F22844 lysine oxidase; format: biochemical, Trichoderma sp.; conditions: lysine = 100, L-isomers
T. viride lysine oxidase [1] = conditions: data from Kusakabe et al., 1980; cited from earlier work
Mr 50,000 protein = Mr 50,000 protein assay (hydrogen peroxide colorimetric); format: biochemical, Trichoderma sp.; conditions: hydrogen peroxide formation monitored
Description: Hydrogen peroxide appears to be the byproduct of the Mr 50,000 protein reaction. The formation of hydrogen peroxide was monitored by a colorimetric assay (Gallo, 1981). P2C was prepared by two separate methods for the initial Mr 50,000 protein assay. The two methods used for preparing P2C were
1) L-lysine with lysine oxidase and catalase; and
2) DL-pipecolic acid with D-amino acid oxidase and catalase.
P2C was isolated from the protein mixture by filtration using an Amicon filter (10 kDa cutoff) before using in the Mr 50,000 protein assay.

[2] = test system: Trichoderma sp. F22844 L-lysine oxidase (Mr 56,000 protein, E.C. 1.4.3.14), native; proprotein SEQ ID NO:46; conditions: read-out: Km for lysine; lysine oxidase from F22844
T. viride lysine oxidase [3] = conditions: read-out: Km for lysine, reported, Kusakabe et al., 1980; cited from earlier work
southern corn rootworm = assay: Southern corn rootworm artificial diet bioassay; format: in vivo; conditions: for Mean larval wt. (mg) (+SEM) / # of survivors: Table 12, SCRW neonate, T. viride lysine oxidase 10 ppm, E. coli produced Mr 50,000 18 ppm; for Mean larval wt. (mg) (+SEM): buffer 0.68, 0.57; for # of survivors: buffer 51, 52
Description: These proteins were then purified by sizing and ion exchange chromatography. […] In both cases, no bioactivity was detected when the proteins were assayed individually but significant stunting was seen when the proteins were combined in assay.
Native-PAGE studies were effective in confirming that the Mr 56,000 and Mr 50,000 proteins were responsible for the southern corn rootworm bioactivity of F22844. The chromatographically purified Mr 56,000 and Mr 50,000 proteins were further purified by native PAGE. […] A sample containing a combination of the two proteins at concentrations of 9.7 μg/mL of Mr 56,000 and 2.5 μg/mL of Mr 50,000 yielded 89% stunting of corn rootworm larvae (Table 3). […]
(§1) These leads were not characterized further. […] Lysine oxidase from Trichoderma viride is available commercially from Sigma (St. Louis, Mo.). The enzyme was purified to a single band from this preparation and bioassayed against southern corn rootworm. Bioassays were conducted to compare the concentration responses of the T. viride lysine oxidase (±Mr 50,000 protein from F22844) with the lysine oxidase purified from F22844. The bioactivity of the T viride lysine oxidase agrees very well with the bioactivity of lysine oxidase from F22844 when bioassayed in the presence of tedanalactam synthase from F22844 (Table 10). Very similar stunting levels are seen at equivalent doses (compare Table 10 to Table 7). In addition, no bioactivity is seen with either lysine oxidase in the absence of tedanalactam synthase from F22844.
An NcoI-HindIII fragment containing the full length tedanalactam synthase cDNA gene (SEQ ID NO:40) from pMON25424 was interested into pMON6235, an E. coli expression vector containing an arabinose inducible promoter and G10 leader sequence to produce pMON25428 (FIG. 12). […] The relative migration of the expressed protein on SDS-PAGE was identical to the F22844 purified tedanalactam synthase. The recombinant tedanalactam synthase was purified in a 5 step procedure from E. coli expressing the tedanalactam synthase gene. Lysine oxidase was purified from a commercial preparation of T. viride lysine oxidase. Both the lysine oxidase and tedanalactam synthase were >95% pure by SDS-PAGE.

[4] = Lysine oxidase enzymatic assay of enzyme preparations; format: biochemical; conditions: purified lysine oxidase
Description: F22844 was identified taxonomically as a Trichoderma species.
(§2) Yeast (Saccharomyces cerevisiae) transformed with pMON25030 were grown in the presence of galactose and shown to produce enzymatically active lysine oxidase. Yeast transformed with pMON25030 had soluble lysine oxidase activity in both disrupted cell pellets and cell free culture media. […] Lysine oxidase from the yeast culture media was subsequently purified and shown to have bioactivity against corn rootworm when combined with tedanalactam synthase.

corn rootworm = assay: Corn rootworm bioassay (species not stated); format: in vivo, Diabrotica spp.; conditions: Table 11, yeast recombinant lysine oxidase 14 ppm, F22844 Mr 50,000 10 ppm, alone or combined; for # of survivors: 16 wells/sample, buffer 61, 45; for Mean larval wt. (mg) (±SEM): buffer 0.94, 0.84
Description: as §1, §2

[5] = test system: southern corn rootworm larvae; assay: Diet overlay assay with SCRW; format: in vivo; conditions: for Av. Wght: Tris control 2.6
Text: However, ingestion of LO69 expressing root tissue by CRW is likely to result in activation of lysine oxidase by proteolysis and subsequent insecticidal activity when the tedanalactam synthase protein is also present. […] The absence of LO activity in the proenzyme sample was confirmed by direct enzymatic assays just prior to exposure to insects.

[6] = test system: proteases present in the midgut of southern corn rootworm; assay: Activation of LO69 proenzyme by midgut extract; format: biochemical
Text: The lysine oxidase gene encodes a 69 kDa proenzyme which is N-terminally cleaved when expressed in Trichoderma or Saccharomyces to yield a mature and enzymatically active protein of approximately 60 kDa. To determine if the lysine oxidase-69 (LO69) proenzyme (Seq ID NO: 46) expressed in corn protoplasts can be activated by the proteases present in the midgut of southern corn rootworm, midguts were dissected from late instar larvae and the proteases extracted. Protease activity assays confirmed the presence of proteases in this extract. This extract and appropriate controls were incubated for about 22 hours at 25° C. with extracts from protoplasts electroporated with pMON25040 (i.e. the CaMV35S promoter and hsp70 intron fused to the 1.9 kb lysine oxidase gene encoding the Mr 69,000 proprotein, SEQ ID NO:45) and non-electroporated controls and assayed for lysine oxidase activity.

[7] = Table 2a, Mr 56,000 10 μg/mL, Mr 50,000 1.5 μg/mL, alone or combined, NSS = not statistically significant
[8] = Table 3, native PAGE purified, Mr 56,000 9.7 μg/mL, Mr 50,000 2.5 μg/mL, alone or combined
[9] = second table headed TABLE 2a, Mr 56,000 10 μg/mL, Mr 50,000 1.5 μg/mL, NSS = not statistically significant
[10] = each protein at 2 ppm, of larval weight vs control
[11] = single protein at 10 ppm, 50 kD activity ascribed to low level LO contamination

Molecule: N=C(N)NCCC[C@H](N)C(=O)O [Arginine]
- Relative activity (%) (F22844 lysine oxidase): 2.6%
- Relative activity (%) (T. viride lysine oxidase [1]): 6.1%

Molecule: N[C@@H](Cc1c[nH]cn1)C(=O)O [Histidine]
- Relative activity (%) (F22844 lysine oxidase): 5.0%
- Relative activity (%) (T. viride lysine oxidase [1]): 3.8%

Molecule: NCCCC[C@H](N)C(=O)O [Lysine]
- Relative activity (%) (F22844 lysine oxidase): 100.0%
- substrate of Mr 50,000 protein (Mr 50,000 protein): not substrates
- Relative activity (%) (T. viride lysine oxidase [1]): 100%

Molecule: NCCC[C@H](N)C(=O)O [Ornithine]
- Relative activity (%) (F22844 lysine oxidase): 10.8%
- Relative activity (%) (T. viride lysine oxidase [1]): 18.2%

Molecule: O=C(O)C1CCCC=N1 (centres unmarked) [P2C, Δ^1-piperideine-2-carboxylate]
- substrate of Mr 50,000 protein (Mr 50,000 protein): catalyses the conversion of Δ^1-piperideine-2-carboxylate (P2C) to product I

Molecule: N[C@@H](Cc1ccccc1)C(=O)O [Phenylalanine]
- Relative activity (%) (F22844 lysine oxidase): 6.6%
- Relative activity (%) (T. viride lysine oxidase [1]): 8.3%

Molecule: O=C(O)C1CCCCN1 (centres unmarked) [Pipecolic acid]
- substrate of Mr 50,000 protein (Mr 50,000 protein): not substrates

Molecule: NCCCC[C@H](N)C(=O)O [lysine]
- Km [2]: 26 µM
- Km (T. viride lysine oxidase [3]): 40 µM

B1: L-lysine oxidase (protein)
chain: MDNVDFAESVRTRWARRLIREKVAKELNILTERLGEVPGIPPPNEGRFLGGGYSHDNLPSDPLYSSIKPALLKEAPRAEEELPPRKVCIVGAGVSGLYIAMILDDLKIPNLTYDIFESSSRTGGRLYTHHFTDAKHDYYDIGAMRYPDIPSMKRTFNLFKRTGMPLIKYYLDGENTPQLYNNHFFAKGVSDPYMVSVANGGTVPDDVVDSVGEKLQQAFGYYKEKLAEDFDKGFDELMLVDDMTTREYLKRGGPKGEAPKYDFFAIQWMETQNTGTNLFDQAFSESVIDSFDFDNPTKPEWYCIEGGTSLLVDAMKETLVHKVQNNKRVDAISIDLDAPDDGNMSVRIGGKDHSGYSTVFNTTALGCLDRMDLRGLNLHPTQADAIRCLHYDNSTKVALKFSYPWWIKDCGITCGGAASTDLPLRTCVYPSYNLDDTGEAVLLASYTWSQDATRIGSLVKDAPPQPPKEDELVELILQNLARLHAEHMTYEKIKEAYTGVYHAYCWANDPNVGGAFALFGPGQFSNLYPYLMRPAAGGKFHIVGEASSVHHAWIIGSLESAYTAVYQFLYKYKMWDYLRLLLERWQYGLQELETGKHGTAHLQFILGSLPKEYQVKI
notes: Mr 56,000 protein purified from Trichoderma sp; F22844 culture filtrate, identified as L-lysine oxidase
- % Stunting (southern corn rootworm; [7]): NSS
- % Stunting (southern corn rootworm; [8]): NSS
- Mean larval wt. (mg) (+SEM) (southern corn rootworm; alone or combined): 0.48 ± 0.04 mg
- # of survivors (southern corn rootworm; alone or combined): 46
- % Stunting (southern corn rootworm; [9]): NSS
- specific activity [4]: 37 U/mg protein
- # of survivors (corn rootworm): 38
- Mean larval wt. (mg) (±SEM) (corn rootworm): 0.76 ± 0.06 mg

B2: Mr 50,000: Mr 50,000 protein from F22844, tedanalactam synthase converting Δ1-piperideine-2-carboxylate to tedanalactam (protein)
chain: MADEIYDVVVIGGGPIGLAAAYEAAKEGAKVVVLEQNNFFNHAGSSNDLARMFRTMYTEDYMADLAKEALALWDDLERDSGTPLRWMSGLLNFGDKDYGGDTPEGTLLGPIANLDRLGMTYQELSAKEIEARYPFKNLDPKYIGLFAPDNGLINVQLLLRTLYKLSLDYGATAKQHTKVQAIKPSNHSHYAWDVHAIRHETEAAVFKAKKIIIASGAYVNHVLKPSFDISLDLDIWEMVFSYFNCNAGPKGTIFPSMWFQFAPDKNGRSQLFYGFPALPWGPPNLARIAVDAATRRIKDPNERLTSTINPEDIADTQEFIRNHCVNVDPTIPALTSSCLQTNVFDNMFVLDFVPEKYLNGGAKDSVVVFTAGWAMKFVPMIGKALADMALKGSSPYARKEFAITRTDSATGKGIIVEGGSENRSVKSSAFVFYSPGIRFFVCRLP
- % Stunting (southern corn rootworm; [7]): NSS
- % Stunting (southern corn rootworm; [8]): NSS
- Mean larval wt. (mg) (+SEM) (southern corn rootworm; alone or combined): 0.52 ± 0.03 mg
- # of survivors (southern corn rootworm; alone or combined): 80
- % Stunting (southern corn rootworm; [9]): NSS
- # of survivors (corn rootworm): 43
- Mean larval wt. (mg) (±SEM) (corn rootworm): 0.80 ± 0.07 mg
- Av. Wght ([5]; each protein at 2 ppm): 3.5 mg
- Surv ([5]; each protein at 2 ppm, n 18): 18
- % inhibition [5, 10]: 0%
- Surv ([5]; single protein at 10 ppm): 18
- % inhibition [5, 11]: 39%
- Av. Wght ([5]; single protein at 10 ppm): 1.5 mg

B3: LO69: 69 kDa lysine oxidase proenzyme (SEQ ID NO: 46); corn protoplast extract in Table 20, purified from Saccharomyces cerevisiae in Table 21 (protein)
chain: B1 chain
- Lysine oxidase Sp. Act. ([6]; BSA): 12 U/μg protein
- Fold Difference ([6]; BSA, relative to heated gut extract): 1.2
- Lysine oxidase Sp. Act. ([6]; corn protoplast extract, gut extract, about 22 hours at 25° C.): 1292 U/μg protein
- Lysine oxidase Sp. Act. ([6]; gut extract, protease inhibitor): 997 U/μg protein
- Fold Difference ([6]; gut extract, protease inhibitor, relative to heated gut extract): 97
- Fold Difference ([6]; gut extract, relative to LO69 with heated gut extract): 130
- Lysine oxidase Sp. Act. ([6]; heated gut extract): 10 U/μg protein
- Fold Difference ([6]; heated gut extract (reference)): 0
- Av. Wght ([5]; each protein at 2 ppm): 2.1 mg
- Surv ([5]; each protein at 2 ppm, n 18): 17
- % inhibition [5, 10]: 20%
- Surv ([5]; single protein at 10 ppm): 17
- % inhibition [5, 11]: 0%
- Av. Wght ([5]; single protein at 10 ppm): 3.3 mg
- % inhibition ([5]; single protein at 20 ppm): 0%
- Av. Wght ([5]; single protein at 20 ppm): 2.8 mg
- Surv ([5]; single protein at 20 ppm, n 18): 18
